Blank lines part the entries; values can stand above or below the sequence they belong to.
Key:
[1] = target: HLA-A*68:02; assay: IEDB peptide-MHC binding, purified MHC/competitive/fluorescence; filed as Kd, often an IC50 or EC50 that approximates it; ≥ and ≤ were set here for values at or beyond the usual limits of such assays
[2] = target: HLA-B*18:01; assay: as above
[3] = target: HLA-A*26:01; assay: as above
[4] = target: HLA-A*02:16; assay: as above
[5] = target: HLA-A*02:12; assay: as above
[6] = target: HLA-A*02:01; assay: as above
[7] = target: HLA-A*24:03; assay: as above
[8] = target: HLA-A*02:19; assay: as above
[9] = target: HLA-B*46:01; assay: as above
[10] = target: HLA-B*27:03; assay: as above
[11] = target: HLA-B*57:01; assay: as above
[12] = target: HLA-B*51:01; assay: as above
[13] = target: HLA-A*69:01; assay: as above
[14] = target: HLA-A*02:11; assay: as above
[15] = target: HLA-B*39:01; assay: as above
[16] = target: HLA-A*03:01; assay: as above
[17] = target: HLA-A*02:01; assay: IEDB peptide-MHC binding, purified MHC/competitive/fluorescence; ≥ and ≤ were set here for values at or beyond the usual limits of such assays; settings: source organism: Zaire ebolavirus
[18] = target: HLA-B*15:01; assay: as above; settings: source organism: Zaire ebolavirus
[19] = target: HLA-B*08:01; assay: as above
[20] = target: HLA-B*07:02; assay: as above; settings: source organism: Zaire ebolavirus
[21] = target: HLA-A*11:01; assay: as above; settings: source organism: Zaire ebolavirus
[22] = target: HLA-A*03:01; assay: as above; settings: source organism: Zaire ebolavirus
[23] = target: HLA-A*02:03; assay: IEDB peptide-MHC binding, purified MHC/competitive/fluorescence; filed as Kd, often an IC50 or EC50 that approximates it; ≥ and ≤ were set here for values at or beyond the usual limits of such assays
[24] = target: HLA-A*80:01; assay: IEDB peptide-MHC binding, purified MHC/direct/fluorescence; filed as Kd, often an IC50 or EC50 that approximates it; ≥ and ≤ were set here for values at or beyond the usual limits of such assays; settings: source organism: Bacillus anthracis
[25] = target: HLA-A*01:01; assay: as above; settings: source organism: Bacillus anthracis
[26] = target: HLA-A*29:02; assay: IEDB peptide-MHC binding, purified MHC/competitive/fluorescence; filed as Kd, often an IC50 or EC50 that approximates it; ≥ and ≤ were set here for values at or beyond the usual limits of such assays; settings: source organism: Burkholderia vietnamiensis G4
[27] = target: HLA-B*15:01; assay: as above
[28] = target: HLA-A*30:01; assay: IEDB peptide-MHC binding, purified MHC/competitive/radioactivity; filed as Kd, often an IC50 or EC50 that approximates it; ≥ and ≤ were set here for values at or beyond the usual limits of such assays; settings: source organism: Vaccinia virus WR
[29] = target: HLA-B*40:01; assay: IEDB peptide-MHC binding, purified MHC/competitive/fluorescence; filed as Kd, often an IC50 or EC50 that approximates it; ≥ and ≤ were set here for values at or beyond the usual limits of such assays; settings: source organism: Escherichia coli E22
[30] = target: HLA-A*24:02; assay: IEDB peptide-MHC binding, purified MHC/competitive/fluorescence; ≥ and ≤ were set here for values at or beyond the usual limits of such assays; settings: source organism: Variola virus
[31] = source organism: Rickettsia sibirica 246
[32] = source organism: Burkholderia pseudomallei 91
[33] = source organism: Burkholderia vietnamiensis G4
[34] = source organism: Human immunodeficiency virus 1

Sequence: YLKKLDDFY
Kd [1, 31]: ≥ 20 µM | Kd [2, 31]: ≥ 20 µM | Kd [3, 31]: ≥ 20 µM | Kd [4, 31]: ≥ 20 µM | Kd [5, 31]: ≥ 20 µM | Kd [6, 31]: ≥ 20000 nM | Kd [7, 31]: ≥ 20 µM | Kd [8, 31]: ≥ 20 µM | Kd [9, 31]: ≥ 20 µM | Kd [10, 31]: ≥ 20 µM | Kd [11, 31]: ≥ 20 µM | Kd [12, 31]: ≥ 20 µM | Kd [13, 31]: ≥ 20 µM | Kd [14, 31]: ≥ 20000 nM | Kd [15, 31]: ≥ 20 µM | Kd [16, 31]: ≥ 20 µM

Sequence: RFKRTSFFL
IC50 [17]: ≥ 117 µM | IC50 [18]: 9.58 µM | IC50 ([19]; source organism: Zaire ebolavirus): 26.5 µM | IC50 [20]: ≥ 215 µM | IC50 [21]: ≥ 390 µM | IC50 [22]: ≥ 504 µM

Sequence: RAYAAMHLW
Kd [1, 32]: ≥ 20 µM | Kd [3, 32]: ≥ 20 µM | Kd [4, 32]: ≥ 20 µM | Kd [5, 32]: ≥ 20 µM | Kd [6, 32]: ≥ 20000 nM | Kd [23, 32]: ≥ 20000 nM | Kd [8, 32]: ≥ 20 µM | Kd [9, 32]: ≥ 20 µM | Kd [10, 32]: ≥ 20 µM | Kd [11, 32]: 0.31 µM | Kd [13, 32]: ≥ 20 µM | Kd [14, 32]: ≥ 20000 nM | Kd [15, 32]: ≥ 20 µM | Kd [16, 32]: ≥ 20 µM

Sequence: SVHYKFVTK
Kd [24]: ≥ 20 µM | Kd [25]: ≥ 20 µM

Sequence: FLKIKVTAA
IC50 ([19]; source organism: Vaccinia virus Copenhagen): 15.6 µM

Sequence: PLFKRGWRL
Kd [2, 33]: ≥ 20 µM | Kd [3, 33]: ≥ 20 µM | Kd [6, 33]: 199 nM | Kd [7, 33]: ≥ 20 µM | Kd [9, 33]: ≥ 20 µM | Kd [10, 33]: ≥ 20 µM | Kd [11, 33]: ≥ 20 µM | Kd [26]: ≥ 20 µM | Kd [27, 33]: ≥ 20 µM | Kd [12, 33]: ≥ 20 µM | Kd [14, 33]: 28.5 nM | Kd [15, 33]: ≥ 20 µM | Kd [16, 33]: ≥ 20 µM

Sequence: GLGQYIYET
Kd [4, 34]: 0.000819 µM | Kd [5, 34]: 0.039 µM | Kd [6, 34]: 140 nM | Kd [23, 34]: 294 nM | Kd [8, 34]: 0.254 µM | Kd [13, 34]: ≥ 20 µM | Kd [14, 34]: 32.2 nM

Sequence: VLRACWNEK
Kd [24]: ≥ 20 µM | Kd [25]: ≥ 20 µM

Sequence: HFKPPKFRA
IC50 ([19]; source organism: Vaccinia virus): ≥ 150 µM | Kd [28]: 8.86 nM

Kd ([27]; source organism: Escherichia coli E22): ≥ 20 µM | Kd [29]: 3000 nM
Sequence: DEIAFGLKL

Sequence: IAVARKHHT
IC50 ([19]; source organism: Variola virus): ≥ 91.6 µM | IC50 [30]: 49.4 µM

Reference: the Immune Epitope Database (IEDB)
